This experiment has as its target T1, human eIF2B (heterodecamer of two copies each of the α-, β-, γ-, δ- and ε-subunits) (human, UniProt Q14232;P49770;Q9NR50;Q9UI10;Q13144).
T1 construct: also called eIF2B decamer; copies: 2 + 2 + 2 + 2 + 2
Nature of the experiment: MST. Particulars: both partners purified.

B1: Sandfly fever Sicilian virus (SFSV) nonstructural protein NSs, wild type (natural protein)
chain: MNSQYMFDYPAINIDVRCHRLLSSVSYVAYNKFHTHDVSTYEHCEIPLEKLRLGFGRRNSLADFYSLGELPASWGPACYFSSVKPMMYTFQGMASDLSRFDLTSFSRKGLPNVLKALSWPLGIPDCEIFSICSDRFVRGLQTRDQLMSYILRMGDSHSLDECIVQAHKKILQEARRLGLSDEHYNGYDLFREIGSLVCLRLINAEPFDTASSGEALDVRTVIRSYRASDPSTGLTEYGNSLWTPIHSHVDENDESSSDSDF
notes: also called SFSV NSs; wild-type SFSV NSs; source: E. coli T7 Express, purified (His-tag resin, HiTrap Q, Superdex 200); not shown: His-tag, C-terminal, kept
As to B1, the Kd turned out to be 16.9 ± 2.8 nM.

The Kd is a measure of binding affinity in units of concentration.

Source of the values: paper PMC8651795, “eIF2B-capturing viral protein NSs suppresses the integrated stress response” (Nature Communications, 2021).
